The values that follow come from the supplement of paper PMC9112550, “Optimization of the antimicrobial peptide Bac7 by deep mutational scanning” (BMC Biology, 2022).

This data set relates to Escherichia coli TOP10. In words: shrunken log2 fold change of peptide-encoding DNA abundance (4.5 h post-induction vs induction); higher = less antimicrobial activity (less host growth inhibition). The conditions noted are these: time post-induction: 4.5 h; library: site-saturation at positions 5, 18, 19, 20.
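Also: peptides expressed intracellularly from a pBAD plasmid library in pooled LB shake-flask culture, induced with 0.3% L-arabinose, DNA abundance read by NGS, three biological replicates, DESeq2 with apeglm shrinkage.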

Take RRIRYRPPRLPRPRPRPADIPRP: the “shrunken log2 fold change” value was -0.0376.

For the sequence RRIRRRPPRLPRPRPRPNYFPRP, the “shrunken log2 fold change” value was -0.323.

Consider RRIRDRPPRLPRPRPRPKLLPRP, for which the “shrunken log2 fold change” value was 0.0314.

For RRIRNRPPRLPRPRPRPCCVPRP, the “shrunken log2 fold change” value is -0.667.

Turning to RRIRLRPPRLPRPRPRPIHFPRP, the “shrunken log2 fold change” value was -0.77.

RRIRPRPPRLPRPRPRPRRVPRP: the “shrunken log2 fold change” value stood at 0.098.

In the case of RRIRERPPRLPRPRPRPWNEPRP, the “shrunken log2 fold change” value is -0.351.

In the case of RRIRPRPPRLPRPRPRPMTQPRP, the “shrunken log2 fold change” value stood at 0.272.

In the case of RRIRDRPPRLPRPRPRPWARPRP, the “shrunken log2 fold change” value was -0.0626.

With RRIRHRPPRLPRPRPRPWLLPRP, the “shrunken log2 fold change” value was -0.397.

RRIRERPPRLPRPRPRPAELPRP: the “shrunken log2 fold change” value was -0.187.

RRIRGRPPRLPRPRPRPISCPRP: the “shrunken log2 fold change” value is 0.279.

For RRIRVRPPRLPRPRPRPECGPRP, the “shrunken log2 fold change” value turned out to be 0.691.

Take RRIRDRPPRLPRPRPRPFRNPRP: the “shrunken log2 fold change” value was -0.0013.

For RRIRVRPPRLPRPRPRPEHTPRP, the “shrunken log2 fold change” value turned out to be 0.224.

RRIRRRPPRLPRPRPRPEERPRP: the “shrunken log2 fold change” value stood at 0.34.

For RRIRNRPPRLPRPRPRPADVPRP, the “shrunken log2 fold change” value is -0.289.

Take RRIRWRPPRLPRPRPRPINRPRP: the “shrunken log2 fold change” value is -0.328.

For the sequence RRIRMRPPRLPRPRPRPFKWPRP, the “shrunken log2 fold change” value is -0.0704.

As for RRIRARPPRLPRPRPRPMDYPRP, the “shrunken log2 fold change” value was -0.407.

As to RRIRFRPPRLPRPRPRPPMMPRP, the “shrunken log2 fold change” value is -0.0466.

As to RRIRERPPRLPRPRPRPMIKPRP, the “shrunken log2 fold change” value is -1.07.

Turning to RRIRNRPPRLPRPRPRPTMYPRP, the “shrunken log2 fold change” value was -0.486.

As for RRIRTRPPRLPRPRPRPEDMPRP, the “shrunken log2 fold change” value was -0.00975.

Consider RRIRLRPPRLPRPRPRPAFRPRP, for which the “shrunken log2 fold change” value came to 0.0862.

Consider RRIRDRPPRLPRPRPRPFCFPRP, for which the “shrunken log2 fold change” value came to 0.265.

Regarding RRIRIRPPRLPRPRPRPNDQPRP, the “shrunken log2 fold change” value was -0.43.

As for RRIRWRPPRLPRPRPRPTMWPRP, the “shrunken log2 fold change” value was 0.615.

Regarding RRIRYRPPRLPRPRPRPRSNPRP, the “shrunken log2 fold change” value came to 0.00328.

Regarding RRIRIRPPRLPRPRPRPLEQPRP, the “shrunken log2 fold change” value was -0.419.

In the case of RRIRWRPPRLPRPRPRPEYSPRP, the “shrunken log2 fold change” value came out at 0.0675.

For RRIRARPPRLPRPRPRPVIYPRP, the “shrunken log2 fold change” value is -0.308.

RRIRRRPPRLPRPRPRPMTLPRP: the “shrunken log2 fold change” value is -0.142.

With RRIRYRPPRLPRPRPRPWRKPRP, the “shrunken log2 fold change” value is -0.296.

As to RRIRPRPPRLPRPRPRPTFPPRP, the “shrunken log2 fold change” value amounted to 0.025.

For RRIRSRPPRLPRPRPRPCSIPRP, the “shrunken log2 fold change” value is -0.153.

With RRIRIRPPRLPRPRPRPKYEPRP, the “shrunken log2 fold change” value is -0.83.

With RRIRSRPPRLPRPRPRPWIQPRP, the “shrunken log2 fold change” value is -0.00956.

As for RRIRPRPPRLPRPRPRPDTTPRP, the “shrunken log2 fold change” value is -0.156.

For the sequence RRIRHRPPRLPRPRPRPTEQPRP, the “shrunken log2 fold change” value was -0.185.

RRIRGRPPRLPRPRPRPFEDPRP: the “shrunken log2 fold change” value turned out to be 0.392.

Turning to RRIRCRPPRLPRPRPRPRVAPRP, the “shrunken log2 fold change” value was 0.293.

As to RRIRHRPPRLPRPRPRPDQCPRP, the “shrunken log2 fold change” value is -0.000823.

In the case of RRIRWRPPRLPRPRPRPQQNPRP, the “shrunken log2 fold change” value was -0.00819.

For the sequence RRIRTRPPRLPRPRPRPHQLPRP, the “shrunken log2 fold change” value is -0.313.

For the sequence RRIRFRPPRLPRPRPRPEELPRP, the “shrunken log2 fold change” value was 0.0201.

Take RRIRVRPPRLPRPRPRPHWGPRP: the “shrunken log2 fold change” value was -0.0382.

In the case of RRIRDRPPRLPRPRPRPPMIPRP, the “shrunken log2 fold change” value is -0.588.

For the sequence RRIRHRPPRLPRPRPRPQWYPRP, the “shrunken log2 fold change” value is -0.0605.

Regarding RRIRDRPPRLPRPRPRPIAAPRP, the “shrunken log2 fold change” value came to 0.476.

As to RRIRARPPRLPRPRPRPKNPPRP, the “shrunken log2 fold change” value was 0.196.

With RRIRCRPPRLPRPRPRPDTIPRP, the “shrunken log2 fold change” value is -0.738.

Consider RRIRNRPPRLPRPRPRPEHWPRP, for which the “shrunken log2 fold change” value is -0.0343.

As for RRIRCRPPRLPRPRPRPEHHPRP, the “shrunken log2 fold change” value was -0.114.

For the sequence RRIRRRPPRLPRPRPRPNSGPRP, the “shrunken log2 fold change” value turned out to be 0.279.

For RRIRARPPRLPRPRPRPPMHPRP, the “shrunken log2 fold change” value is 0.51.

On to RRIRFRPPRLPRPRPRPMPCPRP, for which the “shrunken log2 fold change” value is -0.557.

On to RRIRGRPPRLPRPRPRPKMRPRP, for which the “shrunken log2 fold change” value amounted to 1.33.

For RRIRWRPPRLPRPRPRPCCCPRP, the “shrunken log2 fold change” value came to 0.129.

On to RRIRIRPPRLPRPRPRPGCCPRP, for which the “shrunken log2 fold change” value was -0.04.

For the sequence RRIRGRPPRLPRPRPRPCTMPRP, the “shrunken log2 fold change” value is -0.063.

On to RRIRRRPPRLPRPRPRPFIEPRP, for which the “shrunken log2 fold change” value is 0.0206.

On to RRIRNRPPRLPRPRPRPLRPPRP, for which the “shrunken log2 fold change” value was determined as 0.998.

RRIRVRPPRLPRPRPRPKLTPRP: the “shrunken log2 fold change” value is -0.0989.

As to RRIRIRPPRLPRPRPRPPIHPRP, the “shrunken log2 fold change” value was -0.614.

For RRIRHRPPRLPRPRPRPGQVPRP, the “shrunken log2 fold change” value was -0.00149.

Turning to RRIRHRPPRLPRPRPRPEYKPRP, the “shrunken log2 fold change” value is -0.467.

As to RRIRTRPPRLPRPRPRPAECPRP, the “shrunken log2 fold change” value is -0.112.

With RRIRFRPPRLPRPRPRPDEQPRP, the “shrunken log2 fold change” value came out at 0.00595.

Take RRIRTRPPRLPRPRPRPMDIPRP: the “shrunken log2 fold change” value was -0.00738.

RRIRTRPPRLPRPRPRPLGPPRP: the “shrunken log2 fold change” value came out at 0.114.

For RRIRERPPRLPRPRPRPCSWPRP, the “shrunken log2 fold change” value was -0.0335.

As to RRIRSRPPRLPRPRPRPRLAPRP, the “shrunken log2 fold change” value worked out at 0.45.

As to RRIRPRPPRLPRPRPRPWLDPRP, the “shrunken log2 fold change” value came out at 0.164.

Consider RRIRKRPPRLPRPRPRPAYSPRP, for which the “shrunken log2 fold change” value is -0.0338.

RRIRKRPPRLPRPRPRPRQYPRP: the “shrunken log2 fold change” value worked out at 0.0199.

For RRIRRRPPRLPRPRPRPEYFPRP, the “shrunken log2 fold change” value was determined as 0.2.

As to RRIRPRPPRLPRPRPRPQKPPRP, the “shrunken log2 fold change” value was 0.163.

As for RRIRARPPRLPRPRPRPEPRPRP, the “shrunken log2 fold change” value stood at 0.679.

Regarding RRIRHRPPRLPRPRPRPRYTPRP, the “shrunken log2 fold change” value was -0.123.

On to RRIRSRPPRLPRPRPRPSAMPRP, for which the “shrunken log2 fold change” value came to 0.292.

Regarding RRIRFRPPRLPRPRPRPKDVPRP, the “shrunken log2 fold change” value was -0.00433.

As for RRIRRRPPRLPRPRPRPRTYPRP, the “shrunken log2 fold change” value was -0.213.

As to RRIRPRPPRLPRPRPRPLSPPRP, the “shrunken log2 fold change” value is -0.113.

Turning to RRIRFRPPRLPRPRPRPKGSPRP, the “shrunken log2 fold change” value worked out at 0.089.

With RRIRKRPPRLPRPRPRPWMTPRP, the “shrunken log2 fold change” value was -0.13.

In the case of RRIRPRPPRLPRPRPRPELQPRP, the “shrunken log2 fold change” value was determined as 0.345.

RRIRHRPPRLPRPRPRPLNIPRP: the “shrunken log2 fold change” value was -0.386.

Turning to RRIRDRPPRLPRPRPRPHRYPRP, the “shrunken log2 fold change” value is -0.21.

For the sequence RRIRKRPPRLPRPRPRPPFRPRP, the “shrunken log2 fold change” value turned out to be 0.566.

Consider RRIRQRPPRLPRPRPRPNHQPRP, for which the “shrunken log2 fold change” value is -0.0841.

With RRIRKRPPRLPRPRPRPGHRPRP, the “shrunken log2 fold change” value was 0.118.

For RRIRQRPPRLPRPRPRPYWRPRP, the “shrunken log2 fold change” value is 0.0113.

Turning to RRIRERPPRLPRPRPRPVFSPRP, the “shrunken log2 fold change” value was -0.191.

As to RRIRHRPPRLPRPRPRPNFFPRP, the “shrunken log2 fold change” value turned out to be 0.307.

Take RRIRARPPRLPRPRPRPKDCPRP: the “shrunken log2 fold change” value worked out at 0.181.

RRIRKRPPRLPRPRPRPGGLPRP: the “shrunken log2 fold change” value came out at 0.0184.

As for RRIRCRPPRLPRPRPRPCEIPRP, the “shrunken log2 fold change” value was found to be 0.0656.

For RRIRNRPPRLPRPRPRPRRGPRP, the “shrunken log2 fold change” value was found to be 0.78.

Regarding RRIRNRPPRLPRPRPRPRQRPRP, the “shrunken log2 fold change” value came out at 0.215.

As to RRIRKRPPRLPRPRPRPKGRPRP, the “shrunken log2 fold change” value was 0.262.

As to RRIRSRPPRLPRPRPRPIILPRP, the “shrunken log2 fold change” value is -0.617.

As for RRIRERPPRLPRPRPRPSTKPRP, the “shrunken log2 fold change” value was -0.232.

As to RRIRRRPPRLPRPRPRPDWHPRP, the “shrunken log2 fold change” value was -0.0494.

As to RRIRTRPPRLPRPRPRPDNYPRP, the “shrunken log2 fold change” value is -0.0497.

In the case of RRIRFRPPRLPRPRPRPKHAPRP, the “shrunken log2 fold change” value turned out to be 0.416.

Take RRIRMRPPRLPRPRPRPPQTPRP: the “shrunken log2 fold change” value turned out to be 0.424.

On to RRIRRRPPRLPRPRPRPSGHPRP, for which the “shrunken log2 fold change” value came out at 0.161.

As for RRIRNRPPRLPRPRPRPPMVPRP, the “shrunken log2 fold change” value was -0.0558.

Consider RRIRKRPPRLPRPRPRPKDWPRP, for which the “shrunken log2 fold change” value came out at 0.742.

For RRIRNRPPRLPRPRPRPNCHPRP, the “shrunken log2 fold change” value came to 0.0111.

On to RRIRQRPPRLPRPRPRPKHEPRP, for which the “shrunken log2 fold change” value was 0.164.

Turning to RRIRFRPPRLPRPRPRPNQIPRP, the “shrunken log2 fold change” value was -0.23.

Regarding RRIRERPPRLPRPRPRPWSNPRP, the “shrunken log2 fold change” value is -0.0583.

Take RRIRMRPPRLPRPRPRPDMKPRP: the “shrunken log2 fold change” value stood at 0.182.

Regarding RRIRLRPPRLPRPRPRPSLDPRP, the “shrunken log2 fold change” value was -0.142.

In the case of RRIRSRPPRLPRPRPRPCGNPRP, the “shrunken log2 fold change” value came out at 0.1.

On to RRIRCRPPRLPRPRPRPFQGPRP, for which the “shrunken log2 fold change” value was 0.203.

In the case of RRIRQRPPRLPRPRPRPHDTPRP, the “shrunken log2 fold change” value was -0.152.

As for RRIRFRPPRLPRPRPRPAVRPRP, the “shrunken log2 fold change” value was -0.0627.

Turning to RRIRSRPPRLPRPRPRPIISPRP, the “shrunken log2 fold change” value is -0.472.

As to RRIRYRPPRLPRPRPRPRCSPRP, the “shrunken log2 fold change” value is -0.173.

Take RRIRYRPPRLPRPRPRPQFCPRP: the “shrunken log2 fold change” value was -0.0677.

On to RRIRKRPPRLPRPRPRPNVSPRP, for which the “shrunken log2 fold change” value was determined as 0.106.

As to RRIRSRPPRLPRPRPRPDCVPRP, the “shrunken log2 fold change” value is -0.0759.
